Measured values published in patent publication US20230357387A1 (published 2023).

Columns and labels:
[1] = target: T1, human ZIP12 on human ZIP12 expressing transfectant cells (human, UniProt Q504Y0 1-691); test: flow cytometry-based reactivity screening, 63A11 lineage (FIG. 7)
T1 construct: Zinc transporter; also called ZIP12 transfected cells

[2] = target: T2, ZIP4 as tested by flow cytometry (human, UniProt Q6P5W5 23-647); test: as above
T2 sequence: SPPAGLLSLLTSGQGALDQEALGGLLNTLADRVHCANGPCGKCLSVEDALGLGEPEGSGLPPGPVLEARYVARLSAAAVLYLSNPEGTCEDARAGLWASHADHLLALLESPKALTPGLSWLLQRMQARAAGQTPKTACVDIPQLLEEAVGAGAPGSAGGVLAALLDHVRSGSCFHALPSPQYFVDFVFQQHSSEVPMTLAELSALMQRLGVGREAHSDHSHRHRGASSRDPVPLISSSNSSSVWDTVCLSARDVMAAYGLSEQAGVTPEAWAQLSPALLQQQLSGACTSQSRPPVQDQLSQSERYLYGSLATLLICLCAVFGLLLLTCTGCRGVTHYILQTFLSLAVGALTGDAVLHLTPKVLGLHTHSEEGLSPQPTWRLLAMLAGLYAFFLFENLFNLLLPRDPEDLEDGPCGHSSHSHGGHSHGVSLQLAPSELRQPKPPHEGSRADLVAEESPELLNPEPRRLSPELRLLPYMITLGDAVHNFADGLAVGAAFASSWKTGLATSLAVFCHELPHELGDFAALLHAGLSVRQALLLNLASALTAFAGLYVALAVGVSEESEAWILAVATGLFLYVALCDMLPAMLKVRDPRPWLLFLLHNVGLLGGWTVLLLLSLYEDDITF

[3] = target: T3, human ZIP12 extracellular domain expressed as a GST fusion protein (human, UniProt Q504Y0 1-202); test: ELISA-based reactivity screening, 63A11 lineage (FIG. 6)
T3 construct: also called hZIP12-ECD-GST; huZIP12-ECD-GST; not shown: glutathione S-transferase (GST) fusion partner

[4] = target: T4, human ZIP4 extracellular domain GST fusion (human, UniProt Q6P5W5 23-327); test: as above
T4 construct: also called hZIP4-ECD-GST; huZIP4-ECD-GST; not shown: glutathione S-transferase (GST) fusion partner
T4 sequence: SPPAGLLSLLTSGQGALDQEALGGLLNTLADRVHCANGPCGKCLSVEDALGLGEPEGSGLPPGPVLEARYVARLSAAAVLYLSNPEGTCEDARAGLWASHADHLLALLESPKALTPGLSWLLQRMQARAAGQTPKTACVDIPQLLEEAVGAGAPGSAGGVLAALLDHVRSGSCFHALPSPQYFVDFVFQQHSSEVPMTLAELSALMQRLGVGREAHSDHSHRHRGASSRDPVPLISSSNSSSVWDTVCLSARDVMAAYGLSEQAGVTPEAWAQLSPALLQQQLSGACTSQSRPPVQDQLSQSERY

[5] = target: T3, human ZIP12 extracellular domain …; test: ELISA-based reactivity screening, 51B12 lineage (FIG. 9)
[6] = target: T4, human ZIP4 extracellular domain GST …; test: as above

B1: 63A11 parental antibody (antibody, human IgG1, kappa, V domains shown)
VH: EVQLVESGGGLVKPGGSRKLSCAASGFTFSDHGMHWVRQAPEKGLEWVAYISSGSSAIFYADTVKGRFTMSRDNAKNTLFLQMTSLRSEDTAMYFCARWTNLYAMDYWGQGTSVTVSS
VL: DIVLTQSPASLAVSLGQRATISCRASKSVSTSGYSYMHWYQQKPGQPPKLLIYLASNLESGVPARFSGSGSGTDFTLNIHPVEEEDAATYYCQHSRELPLTFGAGTKLELKR
notes: the full chains it gives are the chimeric ones; also called 19214; parent antibody
[1]
  binding result: binds
[2]
  binding result: no binding
[3]
  binding result: binds
[4]
  binding result: no binding

B2: 51B12 parental antibody (antibody, human IgG1, kappa, V domains shown)
VH: EVQLVESGGGLVKPGGSRKLSCAASGFTFSDYGMHWVRQAPEKGLEWVAYISSGGTTIYYADTVKGRFTISRDNAKNTLFLQMTSLRSEDTAMYYCARWTNLYAMDYWGQGTSVTVSS
VL: DIVLTQSPASLAVSLGQRATISCRASKSVSTSGYSYMHWYQQKPGQPPKFLIYLASNLESGVPARFSGSGSGTDFTLNIHPVEEEDAATYYCQHSREVPYTFGGGTKLEIKR
notes: also called 19213; parent antibody
[5]
  binding result: binds
[6]
  binding result: no binding
